Results reported in the supplement of paper PMC11780869.

Test system: Bacillus subtilis
Test: cleaved RNA product abundance (RNA/gDNA barcode ratio) relative to median wild-type variant (ratio to wild type); higher = more accumulation of the downstream cleavage product
Conditions: cleavage site: cggR-gapA (positions -7 to +36 mutated)
Summary of the method: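 Truncated aprE or tetM reporter mRNAs with barcoded RNase Y cleavage-site windows, mutagenized from oligos at a 9% error rate, sat in the B. subtilis chromosome. Cells grew in LB at 37°C from OD600 0.0003 to 0.3. Gel-selected cleaved RNA was reverse transcribed and its barcodes sequenced with those from genomic DNA, collapsing by UMI. Cleaved product abundance equals the RNA:gDNA barcode ratio per construct over the median construct with the unmutated site.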

[1] = experiment (reporter, strain, medium): exp 4a: truncated aprE reporter, strain BJT201 with 2% xylose (RNase J1 expressed)
[2] = experiment (reporter, strain, medium): exp 2b: truncated aprE reporter, strain BJT200

Sequence	cleaved RNA product abundance [1]	cleaved RNA product abundance [2]	cleaved RNA product abundance (experiment (reporter, strain, medium): exp 6: tetM reporter, strain 168)
ACAGACGAAGGAGCCGCAAAGAAGTTATTATGGGATGAATAATCCCTCAAAATAAATATCTCTCACTTATTTAAA	0.277	–	–
ACAGACGAAGGAGCCGCAAAGAAGTTATTATGGGATGAATAATCCCTCAACATAAATATCTCTCACTTATTTAAA	0.361	–	–
ACAGACGAAGGAGCCGCAAAGAAGTTATTATGGGATGAATAATCCCTCAATATAAAAATCTCTCACTTATTTAAA	0.391	0.279	–
ACAGACGAAGGAGCCGCAAAGAAGTTATTATGGGATGAATAATCCCTCAATATAAATACCTCTCACTTATTTAAA	0.44	0.348	–
ACAGACGAAGGAGCCGCAAAGAAGTTATTATGGGATGAATAATCCCTCAATATAAATATCTCTCACTTATTTAAA	0.407	0.302	–
ACAGACGAAGGAGCCGCAAAGAAGTTATTATGGGATGAATAATCCCTCAATATAATTATCTCTCACTTATTTAAA	0.294	–	–
ACAGACGAAGGAGCCGCAAAGAAGTTATTATGGGATGAATAATCCCTCAATATACATATCTCTCACTTATTTAAA	0.538	–	–
ACAGACGAAGGAGCCGCAAAGAAGTTATTATGGGATGAATAATCCCTCAATATAGATATCTCTCACTTATTTAAA	0.323	–	–
ACAGACGAAGGAGCCGCAAAGAAGTTATTATGGGATGAATAATCCCTCAATATATATATCTCTCACTTATTTAAA	0.503	–	–
ACAGACGAAGGAGCCGCAAAGAAGTTATTATGGGATGAATAATCCCTCAATATCAATATCTCTCACTTATTTAAA	0.0948	–	–
ACAGACGAAGGAGCCGCAAAGAAGTTATTATGGGATGAATAATCCCTCAATTTAAATATCTCTCACTTATTTAAA	0.169	–	–
ACAGACGAAGGAGCCGCAAAGAAGTTATTATGGGATGAATAATCCCTCATTATAAATATCTCTCACTTATTTAAA	0.528	–	–
ACAGACGAAGGAGCCGCAAAGAAGTTATTATGGGATGAATAATCCCTCCATATAAATATCTCTCACTTATTTAAA	–	0.361	–
ACAGACGAAGGAGCCGCAAAGAAGTTATTATGGGATGAATAATCCCTCTATATAAATATCTCTCACTTATTTAAA	0.223	–	–
ACAGACGAAGGAGCCGCAAAGAAGTTATTATGGGATGAATAATCCCTGAATATAAATATCTCTCACTTATTTAAA	0.663	–	–
ACAGACGAAGGAGCCGCAAAGAAGTTATTATGGGATGAATAATCCGTCAATATAAATATCTCTCACTTATTTAAA	0.279	–	–
ACAGACGAAGGAGCCGCAAAGAAGTTATTATGGGATGAATAATCCTTCAATATAAATATCTCTCACTTATTTAAA	0.382	0.315	–
ACAGACGAAGGAGCCGCAAAGAAGTTATTATGGGATGAATAATCTCTCAATATAAATATCTCTCACTTATTTAAA	0.285	0.224	–
ACAGACGAAGGAGCCGCAAAGAAGTTATTATGGGATGAATAATTCCTCAATATAAATATCTCTCACTTATTTAAA	0.246	0.149	–
ACAGACGAAGGAGCCGCAAAGAAGTTATTATGGGATGAATACTCCCTCAATATAAATATCTCTCACTTATTTAAA	0.212	–	–
ACAGACGAAGGAGCCGCAAAGAAGTTATTATGGGATGATTAATCCCTCAATATAAATATCTCTCACTTATTTAAA	0.414	–	–
ACAGACGAAGGAGCCGCAAAGAAGTTATTATGGGATGTATAATCCCTCAATATAAATATCTCTCACTTATTTAAA	–	0.31	–
ACAGACGAAGGAGCCGCAAAGAAGTTATTATGGGATTAATAATCCCTCAATATAAATATCTCTCACTTATTTAAA	0.307	0.352	–
ACAGACGAAGGAGCCGCAAAGAAGTTATTATGGGGTGAATAATCCCTCAATATAAATATCTCTCACTTATTTAAA	0.285	–	–
ACAGACGAAGGAGCCGCAAAGAAGTTATTATGGTATGAATAATCCCTCAATATAAATATCTCTCACTTATTTAAA	0.14	0.0925	–
ACAGACGAAGGAGCCGCAAAGAAGTTATTATGTGATGAATAATCCCTCAATATAAATATCTCTCACTTATTTAAA	0.131	–	–
ACAGACGAAGGAGCCGCAAAGAAGTTATTATTGGATGAATAATCCCTCAATATAAATATCTCTCACTTATTTAAA	0.149	–	–
ACAGACGAAGGAGCCGCAAAGAAGTTATTCAAGGATGAATAATCCCTCAATATAAATATCTCTCACTTATTTAAA	0.242	0.134	–

Sequence	cleaved RNA product abundance [1]	cleaved RNA product abundance [2]	cleaved RNA product abundance (experiment (reporter, strain, medium): exp 6: tetM reporter, strain 168)
ACAGACGAAGGAGCCGCAAAGAAGTTATTCAGAGATGAATAATCCCTCAATATAAATATCTCTCACTTATTTAAA	0.159	0.167	–
ACAGACGAAGGAGCCGCAAAGAAGTTATTCAGCGATGAATAATCCCTCAATATAAATATCTCTCACTTATTTAAA	0.0886	–	–
ACAGACGAAGGAGCCGCAAAGAAGTTATTCAGGAATGAATAATCCCTCAATATAAATATCTCTCACTTATTTAAA	0.129	0.132	–
ACAGACGAAGGAGCCGCAAAGAAGTTATTCAGGCATGAATAATCCCTCAATATAAATATCTCTCACTTATTTAAA	–	0.0983	–
ACAGACGAAGGAGCCGCAAAGAAGTTATTCAGGGAAGAATAATCCCTCAATATAAATATCTCTCACTTATTTAAA	0.697	–	–
ACAGACGAAGGAGCCGCAAAGAAGTTATTCAGGGATAAATAATCCCTCAATATAAATATCTCTCACTTATTTAAA	1.1	–	–
ACAGACGAAGGAGCCGCAAAGAAGTTATTCAGGGATGAACAATCCCTCAATATAAATATCTCTCACTTATTTAAA	0.603	–	–
ACAGACGAAGGAGCCGCAAAGAAGTTATTCAGGGATGAATAATACCTCAATATAAATATCTCTCACTTATTTAAA	0.134	–	–
ACAGACGAAGGAGCCGCAAAGAAGTTATTCAGGGATGAATAATCCATCAATATAAATATCTCTCACTTATTTAAA	0.319	–	–
ACAGACGAAGGAGCCGCAAAGAAGTTATTCAGGGATGAATAATCCCCCAAAATAAATATCTCTCACTTATTTAAA	0.165	–	–
ACAGACGAAGGAGCCGCAAAGAAGTTATTCAGGGATGAATAATCCCTAAATATAAATATCTCTCACTTATTTAAA	0.713	0.695	–
ACAGACGAAGGAGCCGCAAAGAAGTTATTCAGGGATGAATAATCCCTCAATATAAAAATCTCTCACTTATTTAAA	0.461	–	–
ACAGACGAAGGAGCCGCAAAGAAGTTATTCAGGGATGAATAATCCCTCAATATAAATAACTCTCACTTATTTAAA	–	0.615	–
ACAGACGAAGGAGCCGCAAAGAAGTTATTCAGGGATGAATAATCCCTCAATATAAATATCTCTCACTTATTTAAA	0.882	0.766	0.609
ACAGACGAAGGAGCCGCAAAGAAGTTATTCAGGGATGAATAATCCGTCAATATAAATATCTCTCACTTATTTAAA	–	0.117	–
ACAGACGAAGGAGCCGCAAAGAAGTTATTCAGGGATGAATAATTCCTCAATATAAATATCTCTCACTTATTTAAA	0.513	–	–
ACAGACGAAGGAGCCGCAAAGAAGTTATTCAGGGATGAATTATCCCTCAATATAAATATCTCTCACTTATTTAAA	0.629	0.56	–
ACAGACGAAGGAGCCGCAAAGAAGTTATTCAGGGATGATTAATCCCTCAATATAAATATCTCTCACTTATTTAAA	–	0.532	–
ACAGACGAAGGAGCCGCAAAGAAGTTATTCAGGGATTAATAATCCCTCAATATAAATATCTCTCACTTATTTAAA	1	0.815	–
ACAGACGAAGGAGCCGCAAAGAAGTTATTCAGGGTTGAATAATCCCTCAATATAAATATCTCTCACTTATTTAAA	0.412	–	–
ACAGACGAAGGAGCCGCAAAGAAGTTATTCAGGTATAAATAATCCCTCAATATAAATATCTCTCACTTATTTAAA	0.118	–	–
ACAGACGAAGGAGCCGCAAAGAAGTTATTCAGGTATGAATAATCCCTCAATATAAATATCTCTCACTTATTTAAA	0.161	–	–
ACAGACGAAGGAGCCGCAAAGAAGTTATTCAGGTATGTATAATCCCTCAATATAAATATCTCTCACTTATTTAAA	0.143	–	–
ACAGACGAAGGAGCCGCAAAGAAGTTATTCATGGATGAATAATCCCTCAATATAAATATCTCTCACTTATTTAAA	0.137	–	–
ACAGACGAAGGAGCCGCAAAGAAGTTATTCTGGGATGAATAATCCCTCAATATAAATATCTCTCACTTATTTAAA	0.742	–	–
ACAGACGAAGGAGCCGCAAAGAAGTTATTGAGGCATGAATAATCCCTCAATATAAATATCTCTCACTTATTTAAA	0.0717	0.0906	–
ACAGACGAAGGAGCCGCAAAGAAGTTATTGAGGGATGAATAATCCCTAAATATAAATATCTCTCACTTATTTAAA	0.897	–	–
